Results on 1 molecule are retold here after US20260240994A1 (MAYO FOUNDATION FOR MEDICAL EDUCATION AND RESEARCH, published 2026).

The target in test [1] is T1, mouse Ecad (recombinant protein, BioLegend) (mouse, UniProt P09803 157-709, limits assumed).
T1 construct: Bought recombinant protein; Also used here for the general statements of mouse cross-reactivity; also called mouse E-cadherin
T1 sequence (looked up): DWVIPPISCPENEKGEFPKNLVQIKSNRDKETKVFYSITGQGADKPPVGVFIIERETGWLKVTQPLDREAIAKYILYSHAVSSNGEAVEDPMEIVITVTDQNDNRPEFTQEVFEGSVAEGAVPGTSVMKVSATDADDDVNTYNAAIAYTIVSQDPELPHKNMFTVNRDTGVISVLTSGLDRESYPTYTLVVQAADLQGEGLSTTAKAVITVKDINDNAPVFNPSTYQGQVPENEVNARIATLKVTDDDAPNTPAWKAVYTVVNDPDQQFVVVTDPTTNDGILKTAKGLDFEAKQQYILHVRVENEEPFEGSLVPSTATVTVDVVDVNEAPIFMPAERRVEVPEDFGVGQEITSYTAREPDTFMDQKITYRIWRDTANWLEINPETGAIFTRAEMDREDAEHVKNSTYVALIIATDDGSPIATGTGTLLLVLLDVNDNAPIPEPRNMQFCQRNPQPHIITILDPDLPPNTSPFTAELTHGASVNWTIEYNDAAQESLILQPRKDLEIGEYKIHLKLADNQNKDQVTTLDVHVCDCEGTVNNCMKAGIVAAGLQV
Kind of test: phage ELISA; relative affinity estimated against the FLAG antibody signal. An excerpt: (§1) hmcECAD.6 scFv sequence was generated and optimized for binding to Ecad protein through phage display library selection. A naive human scFv library of approximately 2×10⁹ diversity was used to screen against recombinant Ecad protein (Biomolecular Discovery, Rochester, NY). The hmcECAD.6 scFv clone was identified after two rounds of screening against mouse Ecad followed by another round of panning on human Ecad Fc chimeric protein (both from BioLegend, San Diego, CA). […] Final hmcECAD.6 sequence (SEQ ID NO: 90) was codon optimized for cloning of heavy and light chain into EcCAR plasmid.

Test [2] deals with T2, Recombinant Human E-cadherin Fc chimera (BioLegend) (human, UniProt P12830 155-707).
T2 construct: also called human Ecad Fc chimeric protein; recombinant human Ecad Fc chimera; Fc part of the bought chimera not given
T2 sequence (looked up): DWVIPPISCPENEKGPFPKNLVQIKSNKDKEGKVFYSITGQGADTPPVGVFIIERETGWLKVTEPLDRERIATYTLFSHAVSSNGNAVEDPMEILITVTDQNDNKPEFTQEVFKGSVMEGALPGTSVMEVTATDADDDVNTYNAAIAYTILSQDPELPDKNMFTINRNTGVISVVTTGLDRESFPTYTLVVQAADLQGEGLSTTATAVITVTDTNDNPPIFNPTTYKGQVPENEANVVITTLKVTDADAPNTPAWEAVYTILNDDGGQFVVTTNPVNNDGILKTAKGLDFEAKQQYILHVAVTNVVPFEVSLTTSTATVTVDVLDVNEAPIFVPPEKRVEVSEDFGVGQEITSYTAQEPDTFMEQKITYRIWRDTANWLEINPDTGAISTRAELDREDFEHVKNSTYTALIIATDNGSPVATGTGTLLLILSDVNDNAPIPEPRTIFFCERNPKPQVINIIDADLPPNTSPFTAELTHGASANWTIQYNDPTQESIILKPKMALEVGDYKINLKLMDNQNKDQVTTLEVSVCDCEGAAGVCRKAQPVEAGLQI
Kind of test: phage display panning.
From the text: as §1

B1: hmcECAD.6 scFv clone (scFv)
scFv: LPVLTQPPSASGTPGQRVTISCSGSSSNIGSNYVYWYQQLPGTAPKLLIYRNNQRPSGVPDRFSGSKSGTSASLAISGLQSEDEADYYCASWDTSLRAWVFGGGTKLTVLGEGKSSGSGSESKASEVQLVQSGGGLVQPGGSLRLSCAASGFTFSSYSMNWVRQAPGKGLEWVSYISSSSSTIYYVDSVKGRFTISRDNAKNSLYLQMDSLRAEDTAVYYCARGGRVLVGALFDYWGQGTLVTVSS
notes: Human scFv from a naive phage display library; also called anti-hmcECAD.6; anti-Ecad scFv
A word on the Kd: it is the free concentration of one partner at which half of the binding sites on the other are occupied at equilibrium, for simple one-to-one binding. Regarding B1, the Kd in test [1] was ~5 nM. For the same molecule, the binding result in test [2] is “binds”.
